Source: US20140024594A1

Target: GFP-MG53 (mouse) (UniProt Q1XH17)
Assay: cell-based or functional assay

Chain of UniProt Q1XH17 (Q1XH17 whole entry): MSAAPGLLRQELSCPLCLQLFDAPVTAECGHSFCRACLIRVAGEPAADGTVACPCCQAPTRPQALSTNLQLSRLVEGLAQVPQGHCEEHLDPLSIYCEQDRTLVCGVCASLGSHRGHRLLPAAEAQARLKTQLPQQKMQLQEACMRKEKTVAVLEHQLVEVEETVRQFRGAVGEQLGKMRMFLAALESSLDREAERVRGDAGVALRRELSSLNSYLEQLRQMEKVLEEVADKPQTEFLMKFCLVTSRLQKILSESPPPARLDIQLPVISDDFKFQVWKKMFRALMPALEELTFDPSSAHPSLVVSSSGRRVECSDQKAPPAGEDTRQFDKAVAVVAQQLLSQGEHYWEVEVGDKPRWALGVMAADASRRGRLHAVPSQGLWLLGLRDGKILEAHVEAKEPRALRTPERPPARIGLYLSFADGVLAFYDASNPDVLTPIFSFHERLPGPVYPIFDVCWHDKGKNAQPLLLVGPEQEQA

In the case of “caveolin-3 overexpressed from pcDNA-Cav-3”, the reduction in the appearance of filapodia-like structures is reported as 82%.
